Measurements taken from paper PMC6888877, “Deconstructing and repurposing the light-regulated interplay between Arabidopsis phytochromes and interacting factors” (Communications Biology, 2019).

What was measured:
Assay in all cases: SEC; 50 µM AtPhyB PCM + 10 µM AtPIF-EYFP (5:1), illuminated with red light (650 nm, 2 min; results say 640 nm), Pfr state; Superdex 200 Increase 10/300 GL; 67 mM sodium phosphate pH 8.0, 200 mM NaCl
Conditions in all cases: both partners purified
P3.As-EYFP = molecular target: T1, P3.As-EYFP (Arabidopsis thaliana)
T1 chain: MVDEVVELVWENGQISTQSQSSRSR

P3.fus-EYFP = molecular target: T2, P3.fus-EYFP (Arabidopsis thaliana)
T2 chain: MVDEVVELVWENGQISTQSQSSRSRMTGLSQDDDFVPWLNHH

P6.AAfus-EYFP = molecular target: T3, P6.AAfus-EYFP (Arabidopsis thaliana)
T3 chain: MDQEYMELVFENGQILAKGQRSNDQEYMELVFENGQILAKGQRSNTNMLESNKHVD

P6.fus-EYFP = molecular target: T4, P6.fus-EYFP (Arabidopsis thaliana)
T4 chain: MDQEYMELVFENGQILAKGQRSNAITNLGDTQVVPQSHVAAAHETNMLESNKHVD

Measured: stoichiometry N

B1: Arabidopsis thaliana phytochrome B photosensory core module (AtPhyB PCM) (domain or fragment, UniProt P14713 1-651, looked up)
chain: MVSGVGGSGGGRGGGRGGEEEPSSSHTPNNRRGGEQAQSSGTKSLRPRSNTESMSKAIQQYTVDARLHAVFEQSGESGKSFDYSQSLKTTTYGSSVPEQQITAYLSRIQRGGYIQPFGCMIAVDESSFRIIGYSENAREMLGIMPQSVPTLEKPEILAMGTDVRSLFTSSSSILLERAFVAREITLLNPVWIHSKNTGKPFYAILHRIDVGVVIDLEPARTEDPALSIAGAVQSQKLAVRAISQLQALPGGDIKLLCDTVVESVRDLTGYDRVMVYKFHEDEHGEVVAESKRDDLEPYIGLHYPATDIPQASRFLFKQNRVRMIVDCNATPVLVVQDDRLTQSMCLVGSTLRAPHGCHSQYMANMGSIASLAMAVIINGNEDDGSNVASGRSSMRLWGLVVCHHTSSRCIPFPLRYACEFLMQAFGLQLNMELQLALQMSEKRVLRTQTLLCDMLLRDSPAGIVTQSPSIMDLVKCDGAAFLYHGKYYPLGVAPSEVQIKDVVEWLLANHADSTGLSTDSLGDAGYPGAAALGDAVCGMAVAYITKRDFLFWFRSHTAKEIKWGGAKHHPEDKDDGQRMHPRSSFQAFLEVVKSRSQPWETAEMDAIHSLQLILRDSFKESEAAMNSKVVDGVVQPCRDMAGEQGIDELGA
modifications: covalently incorporated bilin chromophore (PCB; co-expressed Synechocystis sp. heme oxygenase 1 and pcyA)
notes: A. thaliana phytochrome B, photosensory core module (PAS-GAF-PHY with N-terminal extension), residues 1-651; Pr state (far-red light or dark) and Pfr state (red light; Pfr/Pr about 0.56/0.44) are told apart by the assays; In the cell experiments other constructs were used (PCM-VP16; PCM 1-650 with CAAX); source: E. coli BL21(DE3), plasmid pDG282, purified (Ni-NTA IMAC, anion exchange)
1: P3.As-EYFP | P3.fus-EYFP | P6.AAfus-EYFP | P6.fus-EYFP
